The target of one test is BACE1 (Homo sapiens, UniProt P56817). Put plainly: HTRF BACE1 enzyme activity assay (long peptide Bi27). In kind it is biochemical. The note with it: IgG, long peptide substrate. Here is the method: The HTRF assay was performed as follows. […] The proteolytic reaction mixture was incubated at ambient temperature for 75 minutes and was quenched by the addition of 5 μL HTRF detection mixture containing 2 nM Streptavidin-D2 and 150 nM of 6E10 anti-amyloid beta antibody (Covance, Emoryville, Calif.) labeled with Europium cryptate in detection buffer (200 mM Tris pH 8.0, 20 mM EDTA, 0.1% BSA, and 0.8M KF). The final reaction mixture was incubated at ambient temperature for 60 minutes and the TR-FRET signal was measured using an EnVision Multilabel Plate Reader™ (Perkin-Elmer) at an excitation wavelength of 320 nm and emission wavelengths of 615 and 665 nm. Reactions lacking BACE1 enzyme (0 BACE) and reactions containing lacking anti-BACE1 antibodies (PBS (100% BACE1 Activity) were used as controls.
Fab proteins of 6 clones were purified and subjected for HTRF enzyme activity assay, as described above.
The affinity matured YW412.8.31 anti-BACE1 antibody was tested in a HTRF assay as described in Example 1. […] Additionally, reactions using a short FRET peptide (Rh-[…]-quencher (SEQ ID NO:54), Invitrogen) were also performed identically to the HTRF reactions. The resulting fluorogenic products from the control reactions were measured as above, but at an excitation wavelength of 545 nm and an emission wavelength of 585 nm. Obtained data were analyzed using GraphPad Prism 5™ (LaJolla, Calif.).

The target in another test is T1, human BACE2 (Homo sapiens, UniProt Q9Y5Z0).
T1 construct: the extracellular domain of human BACE2 enzyme (5 nM)
T1 sequence (Q9Y5Z0 63-473 limits assumed): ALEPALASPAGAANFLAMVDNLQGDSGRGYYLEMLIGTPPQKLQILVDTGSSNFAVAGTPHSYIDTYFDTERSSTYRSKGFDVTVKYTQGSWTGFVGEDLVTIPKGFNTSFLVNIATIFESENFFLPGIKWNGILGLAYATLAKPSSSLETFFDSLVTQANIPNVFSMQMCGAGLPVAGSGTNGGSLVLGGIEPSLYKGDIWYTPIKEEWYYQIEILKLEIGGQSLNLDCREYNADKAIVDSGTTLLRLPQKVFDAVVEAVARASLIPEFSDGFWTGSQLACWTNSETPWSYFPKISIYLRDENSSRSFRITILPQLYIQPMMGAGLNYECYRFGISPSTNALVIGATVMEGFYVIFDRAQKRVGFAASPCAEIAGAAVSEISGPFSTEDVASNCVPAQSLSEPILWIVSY
Briefly: MCE assay, BACE2. The format is biochemical. As to the method:
The MCE assay reactions were carried out in a final volume of 20 μL per well in a 384-well microplate. A standard enzymatic reaction, initiated by the addition of 10 μL 2× substrate to 5 μL of 4× enzyme and […] of 4× compound, containing 12 nM human BACE1 extracellular domain, […] amyloid precursor protein beta secretase active site peptide (FAM-[…]-CONH2 (SEQ ID NO:55)), 50 mM NaOAc pH 4.4 and 0.1% CHAPS. The same reaction conditions were used for the extracellular domain of human BACE2 enzyme (5 nM) and the extracellular domain of Cathepsin D (6 nM, Calbiochem®). After incubation for 60 minutes at ambient temperature, the product and substrate in each reaction were separated using a 12-sipper microfluidic chip analyzed on an LC3000® (both, Caliper Life Sciences). The separation of product and substrate was optimized by choosing voltages and pressure using the manufacturer's optimization software. The separate buffer contained 100 mM HEPES pH 7.2, 0.015% Brij-35, 0.1% coating reagent #3, 10 mM EDTA and 5% DMSO. The separation conditions used a downstream voltage of −500V, an upstream voltage of −2250V and a screening pressure of −1.2 psi. The product and substrate fluorescence was excited at a wavelength of 488 nm and detected at a wavelength of 530 nm. Substrate conversion was calculated from the electropherogram using HTS Well Analyzer software (Caliper Life Sciences).

A further test addresses Guinea pig BACE1 (Cavia porcellus, UniProt Q1KLR6). Put plainly: BIAcore SPR binding kinetics, guinea pig BACE1. The note with it: guinea pig BACE1, pH 7.0. In general terms: SPR reads the build-up and loss of mass on a sensor chip optically.
Test [1] deals with E16.5 cortical neurons and E16.5 hippocampal neurons. Put plainly: Aβ40 production in cortical and hippocampal neurons. In kind it is cell-based, mouse. The note with it: 24 hours. Here is the method: Similar studies were also performed in dorsal root ganglia, cortical neurons and hippocampal neurons isolated from mice. Briefly, dissociated neuronal cultures were prepared from E13.5 dorsal root ganglia (DRG), E16.5 cortical neurons and E16.5 hippocampal neurons. Neurons were grown for five days in vitro. Fresh media containing YW412.8.31 anti-BACE antibody or control IgG1 was incubated with the neurons for 24 hours. Media was harvested and assayed for the presence of Aβ40 using the MSD® Rodent/Human (4G8) A1340 Ultrasensitive kit according to the Manufacturer's instructions. Aβ40 values were normalized for cell viability, as determined using the CellTiter-Glo Luminescent Cell Viability Assay (Promega). The experiment was performed at least three times, and each point was repeated in duplicate. Data was plotted using a four-parameter non-linear regression curve-fitting program (Kaleidagraph, Synergy Software).

Test [2] relates to Aβ1-40 and Aβ1-42 in hAPP transgenic mice. Briefly: hAPP transgenic mice, systemic (IP) dosing, Aβ levels. In kind it is in vivo, mouse. The note with it: 100 mg/kg IP, 3 doses Q4D. As to the method: Briefly, 5-month old human APP-expressing mice were treated with 30 mg/kg or 100 mg/kg YW412.8.31 antibody or vehicle by intra-peritoneal injection every four days for a total of three doses (i.e., at days 1, 5, and 9). Animals were euthanized two hours post the final dose. Serum, plasma, and brains were harvested and processed. Plasma, cortex and hippocampus were analyzed for levels of soluble Aβ1-40 and Aβ1-42 using an Amyloid beta (Aβ) ELISA test kit per manufacture's instructions (The Genetics Company). Pharmacokinetic analysis was performed on serum and brain homogenates.

One molecule from patent US9879094B2, “Nucleic acid molecules encoding for BACE1 antibodies” (Genentech, Inc., priority 2010, dated 2018) can be followed below.

A word on the IC50: it is the concentration at which inhibition is half-maximal.

Guinea pig BACE1, sequence (Q1KLR6 46-473): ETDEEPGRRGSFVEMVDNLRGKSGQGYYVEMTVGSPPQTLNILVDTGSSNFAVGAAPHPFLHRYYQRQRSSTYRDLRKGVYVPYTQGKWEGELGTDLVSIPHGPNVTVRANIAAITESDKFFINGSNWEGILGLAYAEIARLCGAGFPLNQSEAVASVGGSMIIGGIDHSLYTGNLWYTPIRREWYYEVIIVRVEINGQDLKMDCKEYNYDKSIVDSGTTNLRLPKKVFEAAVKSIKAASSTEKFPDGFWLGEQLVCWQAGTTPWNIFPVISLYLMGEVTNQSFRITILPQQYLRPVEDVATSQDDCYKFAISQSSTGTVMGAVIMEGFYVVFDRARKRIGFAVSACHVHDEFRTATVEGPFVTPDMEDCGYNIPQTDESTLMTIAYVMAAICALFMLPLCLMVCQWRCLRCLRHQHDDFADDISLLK
BACE1, sequence (P56817 22-457): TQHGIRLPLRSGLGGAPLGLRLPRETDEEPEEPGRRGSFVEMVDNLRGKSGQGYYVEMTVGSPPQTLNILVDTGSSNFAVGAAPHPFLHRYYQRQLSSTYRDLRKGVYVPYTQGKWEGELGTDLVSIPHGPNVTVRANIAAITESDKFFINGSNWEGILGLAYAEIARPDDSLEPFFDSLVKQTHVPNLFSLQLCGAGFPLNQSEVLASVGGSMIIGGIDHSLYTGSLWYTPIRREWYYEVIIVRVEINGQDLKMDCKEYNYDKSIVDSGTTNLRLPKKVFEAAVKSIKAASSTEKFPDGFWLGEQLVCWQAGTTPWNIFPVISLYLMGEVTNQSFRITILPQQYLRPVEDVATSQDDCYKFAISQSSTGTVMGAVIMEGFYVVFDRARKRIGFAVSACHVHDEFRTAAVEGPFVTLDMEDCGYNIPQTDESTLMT

B1: YW412.8.31: affinity matured form of YW412.8 anti-BACE1 antibody (antibody, V domains shown)
VH: EVQLVESGGGLVQPGGSLRLSCAASGFTFLGYGIHWVRQAPGKGLEWVGWISPAGGSTDYADSVKGRFTISADTSKNTAYLQMNSLRAEDTAVYYCARGPFSPWVMDYWGQGTLVTVSS
VL: DIQMTQSPSSLSASVGDRVTITCRASQDVSTAVAWYQQKPGKAPKLLIYSASFLYSGVPSRFSGSGSGTDFTLTISSLQPEDFATYYCQQFPTYLPTFGQGTKVEIK
In the test with BACE1, B1 displayed a maximal inhibition of 77%. For the same molecule, in the test with human BACE2, the “inhibition of human BACE2” value was “did not inhibit”. Moreover, in the test with Guinea pig BACE1, the KOFF is 2.7 × 10^−4 S^−1 and the KON was 1.0 × 10^5 M^−1S^−1. Besides, the IC50 in test [1] was around 2.5 nM. In addition, in test [2], the “reduction of Aβ1-40 and Aβ1-42 in the brain” value was 15-22%; the “reduction of cortical Aβ1-40 and Aβ1-42 (trend)” value was 12-18%; the “reduction of hippocampal Aβ1-40 and Aβ1-42” value is on record as 13-22%.
